This assay concerns the target F-actin (rabbit muscle actin polymerised in vitro) (rabbit) (UniProt P68135). Put plainly: co-sedimentation.

pKd: −log10 of the molar value.

“GST-PICK1 (from UniProt Q9EP80 1-416) (natural protein)” showed a pKd of 6.52.

For orientation: pKd means −log10 of the Kd, conventionally taken in molar units. Low readings indicate a high Kd, high ones a low Kd.
